Measurements taken from PMC10307831, “GATA zinc finger protein p66β promotes breast cancer cell migration by acting as a co-activator of Snail”.

B1: COL6A2-G-box-MT (dsDNA)
DNA 1: GGCCCCCTAATAATATCCGCG
DNA 2: GCGGATATTATTAGGGGGCC
B2: COL6A2-G-box-WT (dsDNA)
DNA 1: GGCCCCCTCCTCCCATCCGCG
DNA 2: CGCGGATGGGAGGAGGGGGCC

How the values were obtained:
[1] = molecular target: T1, Flag-p66β (UniProt Q8WXI9 1-593); test: competition; unlabeled mutant vs biotinylated WT probe; EMSA: 10 mM Tris pH 7.5, 50 mM KCl, 1 mM DTT, 5 mM MgCl2, 2.5% glycerol, 0.05% NP-40, 50 ng/ul poly(dI.dC), 600 fmol probe, 12 ug GST protein in 20 ul; gel 6% 0.5x TBE 4 C. Pull-down: NeutrAvidin beads, 8 h 4 C, washed in IP buffer (50 mM Tris pH 7.5, 150 mM NaCl, 1% Triton X-100); conditions: protein: recombinant; tags: Flag; 3' overhang 1 nt on strand 1 as printed (reverse strand lacks 5' C)
T1 sequence (Q8WXI9 whole entry): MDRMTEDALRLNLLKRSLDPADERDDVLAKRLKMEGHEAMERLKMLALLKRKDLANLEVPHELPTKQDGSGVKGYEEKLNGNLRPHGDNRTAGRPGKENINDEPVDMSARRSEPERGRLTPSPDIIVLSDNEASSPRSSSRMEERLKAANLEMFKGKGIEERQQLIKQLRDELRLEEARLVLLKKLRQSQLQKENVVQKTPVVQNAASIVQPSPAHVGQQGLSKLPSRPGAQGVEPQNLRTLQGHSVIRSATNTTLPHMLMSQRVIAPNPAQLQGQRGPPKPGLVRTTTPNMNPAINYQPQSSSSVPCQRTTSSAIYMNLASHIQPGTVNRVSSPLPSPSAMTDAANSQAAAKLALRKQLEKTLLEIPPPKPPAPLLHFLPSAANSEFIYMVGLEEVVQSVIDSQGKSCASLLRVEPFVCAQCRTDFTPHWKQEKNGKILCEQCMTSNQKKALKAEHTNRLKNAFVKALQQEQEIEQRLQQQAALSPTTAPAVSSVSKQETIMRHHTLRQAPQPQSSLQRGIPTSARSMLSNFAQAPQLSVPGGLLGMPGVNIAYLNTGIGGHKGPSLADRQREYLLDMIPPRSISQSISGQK

[2] = molecular target: T2, GST-Snail (UniProt O95863 1-264); test: as above; conditions: protein: recombinant; tags: N-terminal GST (pGEX-4T-1); 3' overhang 1 nt on strand 1 as printed (reverse strand lacks 5' C)
T2 sequence (O95863 whole entry): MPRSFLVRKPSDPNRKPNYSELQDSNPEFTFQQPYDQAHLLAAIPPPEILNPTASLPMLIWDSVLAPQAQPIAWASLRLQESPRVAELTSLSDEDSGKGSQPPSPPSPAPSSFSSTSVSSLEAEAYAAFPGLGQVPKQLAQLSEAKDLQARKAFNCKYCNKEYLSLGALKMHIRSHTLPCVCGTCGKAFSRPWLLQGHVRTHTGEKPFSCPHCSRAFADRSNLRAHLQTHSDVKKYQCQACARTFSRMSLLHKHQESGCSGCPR

[3] = molecular target: T1, Flag-p66β; test: pull-down; p66β alone; relatively high affinity; EMSA: 10 mM Tris pH 7.5, 50 mM KCl, 1 mM DTT, 5 mM MgCl2, 2.5% glycerol, 0.05% NP-40, 50 ng/ul poly(dI.dC), 600 fmol probe, 12 ug GST protein in 20 ul; gel 6% 0.5x TBE 4 C. Pull-down: NeutrAvidin beads, 8 h 4 C, washed in IP buffer (50 mM Tris pH 7.5, 150 mM NaCl, 1% Triton X-100); conditions: protein: recombinant; tags: Flag; label: biotin (probe); blunt
[4] = molecular target: T2, GST-Snail; test: EMSA; 5 mM Mg2+, poly(dI.dC); EMSA: 10 mM Tris pH 7.5, 50 mM KCl, 1 mM DTT, 5 mM MgCl2, 2.5% glycerol, 0.05% NP-40, 50 ng/ul poly(dI.dC), 600 fmol probe, 12 ug GST protein in 20 ul; gel 6% 0.5x TBE 4 C. Pull-down: NeutrAvidin beads, 8 h 4 C, washed in IP buffer (50 mM Tris pH 7.5, 150 mM NaCl, 1% Triton X-100); conditions: protein: recombinant; tags: N-terminal GST (pGEX-4T-1); label: biotin (probe); blunt

| Binder | binding result [1] | binding result [2] | binding result [3] | binding result [4] |
| --- | --- | --- | --- | --- |
| B1 | no binding | no binding | – | – |
| B2 | – | – | binds | binds |
